Measured values published in the supplement of paper PMC5998384.

Legend:
HeLa Kyoto [1] = assay: solubility change mitosis vs G1/S (difference of NP-40 vs SDS log2 ratios) (log2 ratio difference); higher = more soluble in mitosis
HeLa Kyoto [2] = assay: melting temperature (median over replicates), in situ; higher = more thermally stable
HeLa Kyoto [3] = assay: thermal stability score vs G1/S (z-score of summed log2 fold changes over temperatures); higher = more thermally stable than in G1/S
HeLa Kyoto [4] = assay: solubility in G1/S (NP-40 vs SDS abundance) (log2 ratio); higher = more soluble; conditions: cell cycle stage: G1/S
[5] = cell cycle stage: early G1 (4.5 h after nocodazole release)
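For melting temperature (median over replicates), in situ in this document: HeLa Kyoto cells synchronized by double thymidine or nocodazole block, proteins quantified by TMT10plex mass spectrometry, three independent biological replicates.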
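For solubility change mitosis vs G1/S (difference of NP-40 vs SDS log2 ratios) in this document: synchronized HeLa Kyoto cells (double thymidine block for G1/S, nocodazole release for mitosis), protein amounts in NP-40 versus SDS lysates quantified by mass spectrometry, three biological replicates.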
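For solubility in G1/S (NP-40 vs SDS abundance) in this document: HeLa Kyoto cells arrested at G1/S by double thymidine block, proteins quantified by TMT10plex mass spectrometry in mild NP-40 versus SDS extracts, three biological replicates.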
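For thermal stability score vs G1/S (z-score of summed log2 fold changes over temperatures) in this document: synchronized HeLa Kyoto cells, proteins quantified by TMT10plex mass spectrometry, three biological replicates, mitosis taken 0.5 h after nocodazole release, G1/S directly after double thymidine block.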

Sequence	solubility change mitosis (log2) (HeLa Kyoto [1])	melting temperature (HeLa Kyoto [2]; cell cycle stage: G1/S) [°C]	melting temperature (HeLa Kyoto [2]; cell cycle stage: mitosis) [°C]	thermal stability score (HeLa Kyoto [3]; [5])	thermal stability score (HeLa Kyoto [3]; cell cycle stage: mitosis)	solubility in G1/S (log2) (HeLa Kyoto [4])
MSRLKRIAGQDLRAGFKAGGRDCGTSVPQGLLKAARKSGQLNLSGRNLSEVPQCVWRINVDIPEEANQNLSFGATERWWEQTDLTKLIISNNKLQSLTDDLRLLPALTVLDIHDNQLTSLPSAIRELENLQKLNVSHNKLKILPEEITNLRNLKCLYLQHNELTCISEGFEQLSNLEDLDLSNNHLTTVPASFSSLSSLVRLNLSSNELKSLPAEINRMKRLKHLDCNSNLLETIPPELAGMESLELLYLRRNKLRFLPEFPSCSLLKELHVGENQIEMLEAEHLKHLNSILVLDLRDNKLKSVPDEIILLRSLERLDLSNNDISSLPYSLGNLHLKFLALEGNPLRTIRREIISKGTQEVLKYLRSKIKDDGPSQSESATETAMTLPSESRVNIHAIITLKILDYSDKQATLIPDEVFDAVKSNIVTSINFSKNQLCEIPKRMVELKEMVSDVDLSFNKLSFISLELCVLQKLTFLDLRNNFLNSLPEEMESLVRLQTINLSFNRFKMLPEVLYRIFTLETILISNNQVGSVDPQKMKMMENLTTLDLQNNDLLQIPPELGNCVNLRTLLLDGNPFRVPRAAILMKGTAAILEYLRDRIPT [LRRC40]	-0.167	49.2	49.2	0.285	1.77	0.322
MSRLLWRKVAGATVGPGPVPAPGRWVSSSVPASDPSDGQRRRQQQQQQQQQQQQQPQQPQVLSSEGGQLRHNPLDIQMLSRGLHEQIFGQGGEMPGEAAVRRSVEHLQKHGLWGQPAVPLPDVELRLPPLYGDNLDQHFRLLAQKQSLPYLEAANLLLQAQLPPKPPAWAWAEGWTRYGPEGEAVPVAIPEERALVFDVEVCLAEGTCPTLAVAISPSAWYSWCSQRLVEERYSWTSQLSPADLIPLEVPTGASSPTQRDWQEQLVVGHNVSFDRAHIREQYLIQGSRMRFLDTMSMHMAISGLSSFQRSLWIAAKQGKHKVQPPTKQGQKSQRKARRGPAISSWDWLDISSVNSLAEVHRLYVGGPPLEKEPRELFVKGTMKDIRENFQDLMQYCAQDVWATHEVFQQQLPLFLERCPHPVTLAGMLEMGVSYLPVNQNWERYLAEAQGTYEELQREMKKSLMDLANDACQLLSGERYKEDPWLWDLEWDLQEFKQKKAKKVKKEPATASKLPIEGAGAPGDPMDQEDLGPCSEEEEFQQDVMARACLQKLKGTTELLPKRPQHLPGHPGWYRKLCPRLDDPAWTPGPSLLSLQMRVTPKLMALTWDGFPLHYSERHGWGYLVPGRRDNLAKLPTGTTLESAGVVCPYRAIESLYRKHCLEQGKQQLMPQEAGLAEEFLLTDNSAIWQTVEELDYLEVEAEAKMENLRAAVPGQPLALTARGGPKDTQPSYHHGNGPYNDVDIPGCWFFKLPHKDGNSCNVGSPFAKDFLPKMEDGTLQAGPGGASGPRALEINKMISFWRNAHKRISSQMVVWLPRSALPRAVIRHPDYDEEGLYGAILPQVVTAGTITRRAVEPTWLTASNARPDRVGSELKAMVQAPPGYTLVGADVDSQELWIAAVLGDAHFAGMHGCTAFGWMTLQGRKSRGTDLHSKTATTVGISREHAKIFNYGRIYGAGQPFAERLLMQFNHRLTQQEAAEKAQQMYAATKGLRWYRLSDEGEWLVRELNLPVDRTEGGWISLQDLRKVQRETARKSQWKKWEVVAERAWKGGTESEMFNKLESIATSDIPRTPVLGCCISRALEPSAVQEEFMTSRVNWVVQSSAVDYLHLMLVAMKWLFEEFAIDGRFCISIHDEVRYLVREEDRYRAALALQITNLLTRCMFAYKLGLNDLPQSVAFFSAVDIDRCLRKEVTMDCKTPSNPTGMERRYGIPQGEALDIYQIIELTKGSLEKRSQPGP [POLG]	-0.0443	50.3	50.6	0.521	0.308	0.0107
MSRPPPTGKMPGAPETAPGDGAGASRQRKLEALIRDPRSPINVESLLDGLNSLVLDLDFPALRKNKNIDNFLNRYEKIVKKIRGLQMKAEDYDVVKVIGRGAFGEVQLVRHKASQKVYAMKLLSKFEMIKRSDSAFFWEERDIMAFANSPWVVQLFYAFQDDRYLYMVMEYMPGGDLVNLMSNYDVPEKWAKFYTAEVVLALDAIHSMGLIHRDVKPDNMLLDKHGHLKLADFGTCMKMDETGMVHCDTAVGTPDYISPEVLKSQGGDGFYGRECDWWSVGVFLYEMLVGDTPFYADSLVGTYSKIMDHKNSLCFPEDAEISKHAKNLICAFLTDREVRLGRNGVEEIRQHPFFKNDQWHWDNIRETAAPVVPELSSDIDSSNFDDIEDDKGDVETFPIPKAFVGNQLPFIGFTYYRENLLLSDSPSCRETDSIQSRKNEESQEIQKKLYTLEEHLSNEMQAKEELEQKCKSVNTRLEKTAKELEEEITLRKSVESALRQLEREKALLQHKNAEYQRKADHEADKKRNLENDVNSLKDQLEDLKKRNQNSQISTEKVNQLQRQLDETNALLRTESDTAARLRKTQAESSKQIQQLESNNRDLQDKNCLLETAKLKLEKEFINLQSALESERRDRTHGSEIINDLQGRICGLEEDLKNGKILLAKVELEKRQLQERFTDLEKEKSNMEIDMTYQLKVIQQSLEQEEAEHKATKARLADKNKIYESIEEAKSEAMKEMEKKLLEERTLKQKVENLLLEAEKRCSLLDCDLKQSQQKINELLKQKDVLNEDVRNLTLKIEQETQKRCLTQNDLKMQTQQVNTLKMSEKQLKQENNHLMEMKMNLEKQNAELRKERQDADGQMKELQDQLEAEQYFSTLYKTQVRELKEECEEKTKLGKELQQKKQELQDERDSLAAQLEITLTKADSEQLARSIAEEQYSDLEKEKIMKELEIKEMMARHKQELTEKDATIASLEETNRTLTSDVANLANEKEELNNKLKDVQEQLSRLKDEEISAAAIKAQFEKQLLTERTLKTQAVNKLAEIMNRKEPVKRGNDTDVRRKEKENRKLHMELKSEREKLTQQMIKYQKELNEMQAQIAEESQIRIELQMTLDSKDSDIEQLRSQLQALHIGLDSSSIGSGPGDAEADDGFPESRLEGWLSLPVRNNTKKFGWVKKYVIVSSKKILFYDSEQDKEQSNPYMVLDIDKLFHVRPVTQTDVYRADAKEIPRIFQILYANEGESKKEQEFPVEPVGEKSNYICHKGHEFIPTLYHFPTNCEACMKPLWHMFKPPPALECRRCHIKCHKDHMDKKEEIIAPCKVYYDISTAKNLLLLANSTEEQQKWVSRLVKKIPKKPPAPDPFARSSPRTSMKIQQNQSIRRPSRQLAPNKPS [ROCK2]	-0.132	49.8	49.4	0.406	1.46	0.0267
MSRRSQRLTRYSQGDDDGSSSSGGSSVAGSQSTLFKDSPLRTLKRKSSNMKRLSPAPQLGPSSDAHTSYYSESLVHESWFPPRSSLEELHGDANWGEDLRVRRRRGTGGSESSRASGLVGRKATEDFLGSSSGYSSEDDYVGYSDVDQQSSSSRLRSAVSRAGSLLWMVATSPGRLFRLLYWWAGTTWYRLTTAASLLDVFVLTRRFSSLKTFLWFLLPLLLLTCLTYGAWYFYPYGLQTFHPALVSWWAAKDSRRPDEGWEARDSSPHFQAEQRVMSRVHSLERRLEALAAEFSSNWQKEAMRLERLELRQGAPGQGGGGGLSHEDTLALLEGLVSRREAALKEDFRRETAARIQEELSALRAEHQQDSEDLFKKIVRASQESEARIQQLKSEWQSMTQESFQESSVKELRRLEDQLAGLQQELAALALKQSSVAEEVGLLPQQIQAVRDDVESQFPAWISQFLARGGGGRVGLLQREEMQAQLRELESKILTHVAEMQGKSAREAAASLSLTLQKEGVIGVTEEQVHHIVKQALQRYSEDRIGLADYALESGGASVISTRCSETYETKTALLSLFGIPLWYHSQSPRVILQPDVHPGNCWAFQGPQGFAVVRLSARIRPTAVTLEHVPKALSPNSTISSAPKDFAIFGFDEDLQQEGTLLGKFTYDQDGEPIQTFHFQAPTMATYQVVELRILTNWGHPEYTCIYRFRVHGEPAH [SUN2]	0.229	52.4	55.1	-1.84	-1.17	-0.141
